The text below walks through data of patent publication US20090087494A1 (BOARD OF REGENTS OF THE UNIVERSITY OF NEBRASKA, published 2009).

The target of test [1] is T1, bovine LHRH receptor (bovine, UniProt P32236 1-328).
T1 construct: whole, on cells; The receptor stood in crude membrane preparations of bovine tissue homogenates, not on intact cells; also called GnRH receptor
T1 sequence (looked up): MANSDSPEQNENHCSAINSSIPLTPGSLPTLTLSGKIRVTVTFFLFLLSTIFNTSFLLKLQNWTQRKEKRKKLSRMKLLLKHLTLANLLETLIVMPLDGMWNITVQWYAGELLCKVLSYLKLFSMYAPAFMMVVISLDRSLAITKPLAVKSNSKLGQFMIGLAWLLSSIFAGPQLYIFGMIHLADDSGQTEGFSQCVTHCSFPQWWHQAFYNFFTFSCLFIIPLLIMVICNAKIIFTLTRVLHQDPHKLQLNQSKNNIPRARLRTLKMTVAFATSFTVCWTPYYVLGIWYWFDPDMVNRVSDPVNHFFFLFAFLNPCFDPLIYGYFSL
The test can be described thus: displacement of 125I-deslorelin, bovine pituitary membranes, high affinity site (IC50 I). The procedure: (§1) Competition Studies: To determine the amount of unlabelled deslorelin required to displace the radioactivity, competition studies were conducted. Briefly, membranes were incubated with 100,000 cpm of I¹²⁵ deslorelin in the presence or absence of unlabelled deslorelin (0.01-3,000 ng) in a total volume of 200 μl for 4 hr at 4° C. Assays were performed in triplicates. At the end of 4 hr, the incubation tubes were centrifuged at 10,000 g for 20 min at 4° C. to separate the bound fraction. Radioactivity was measured in the pellet using a Perkin-Elmer γ-counter. The same controls as in the kinetic and saturation studies were used. The experiment was repeated three times.
(Displacement assays read how much labelled ligand stays bound in the presence of the test substance.)

Test [2] has as its target T1, bovine LHRH receptor. The test can be described thus: displacement of 125I-deslorelin, bovine pituitary membranes, low affinity site (IC50 II). The procedure:
as §1

Test [3] addresses T1, bovine LHRH receptor. The experiment in a line: displacement of 125I-deslorelin, bovine nasal ITP region membranes, high affinity site (IC50 I). The procedure:
as §1

Test [4] deals with T1, bovine LHRH receptor. The experiment in a line: displacement of 125I-deslorelin, bovine nasal ITP region membranes, low affinity site (IC50 II). The procedure:
as §1

Test [5] addresses T1, bovine LHRH receptor. The test can be described thus: displacement of 125I-deslorelin, bovine nasal MTA region membranes, high affinity site (IC50 I). The procedure: as §1
Test [6] has as its target T1, bovine LHRH receptor. The experiment in a line: displacement of 125I-deslorelin, bovine nasal MTA region membranes, low affinity site (IC50 II). The method, then:
as §1

For test [7], the target named is T1, bovine LHRH receptor. The experiment in a line: displacement of 125I-deslorelin, bovine nasal MTP region membranes, high affinity site (IC50 I). The method, then: as §1
Test [8] has as its target T1, bovine LHRH receptor. The test can be described thus: displacement of 125I-deslorelin, bovine nasal MTP region membranes, low affinity site (IC50 II). The procedure: as §1

B1: deslorelin (peptide)
peptide: EHWSYWLRP
modifications: pGlu at position 1; D-Trp at position 6; C-terminal ProNHEt (ethylamide)
notes: Synthetic LHRH analog, gift from Balance Pharmaceuticals; also called unlabelled deslorelin; unlabeled deslorelin
The IC50 is the concentration that inhibits the measured activity by half. Low readings indicate inhibition by little substance, high ones a need for much substance. As for B1, the IC50 came out at 0.031 nM in the test with bovine LHRH receptor [1]; 17.9 nM with bovine LHRH receptor [2]; 0.102 nM in the test with bovine LHRH receptor [3]; 32.9 nM with bovine LHRH receptor [4]; 0.136 nM in the test with bovine LHRH receptor [5]; 53.2 nM in the test with bovine LHRH receptor [6]. The IC50 with bovine LHRH receptor [7] was determined as 0.112 nM; with bovine LHRH receptor [8] it was 42.1 nM.
